Test results as given in US12648964B2, “Chimeric Tim receptors and uses thereof” (CERO THERAPEUTICS HOLDINGS, INC., priority 2020, dated 2026).
“Also recorded” adds a separate entry of the source. Like-named read-outs stand apart in the source and are kept apart here.

Legend:
[1] = system: Kuramochi cells; details: BRCA-2 mutated Kuramochi cell line
Method: (§1) In ovarian tumors, poly (ADP-ribose) polymerase (PARP) inhibitors, such as Niraparib, are clinically approved drugs which target DNA damage response pathways. Responses are rarely complete, with relapse common after treatment. To induce Ptd-Ser exposure, BRCA-2 mutated Kuramochi cell line was treated with therapeutic doses of the PARP inhibitor Niraparib.

[2] = system: Kuramochi cells; details: 1.56 or 25 μM Niraparib, 48 hours, vs DMSO
Method: FIG. 7A: Flow cytometry measurement of surface PtdSer. Kuramochi cells were treated with 1.56 or 25 μM Niraparib or with equivalent volume of DMSO (control). 48 hours later samples were trypsinized and stained using a Tim4-Fc followed by a fluorescently-labeled secondary antibody to the Tim4-Fc. […] All data were collected via IncuCyte.
as §1

[3] = system: E7 TCR-T cells; assay: E7-specific T cell proliferation by CT Violet dye dilution after co-culture with E7 peptide-pulsed CER-T cells; assay type: cell-based; details: for stimulation / proliferation responses of E7-specific T cells: CER-T pulsed with E7 peptides, CT Violet dilution after 6 days
Method: FIG. 1A: a schematic of pCTX247 and pCTX1107 chimeric Tim4 receptors and pCTX1107 T cells pulsed with E7 peptides and co-cultured with E7-specific T cells to evaluate their antigen presentation capacity. FIG. 1B: E7-specific proliferation responses were measured by CT Violet dye dilution after 6 days in the presence of autologous CER-T (TLR containing or non-containing CERs) pulsed with E7 peptides. […] All data collected by FACS. Cell tracing show E7 TCR-T cells using an anti-mouse TCRb. E7 TCR-T cells were labeled with CT Violet at the time of co-culture.
Chimeric Tim4 receptor-T cells were tested to determine whether they can capture and present soluble antigens and trigger activation and proliferation of recombinant E7-restricted T cell clones in a co-culture system. First expression of Tim4 was confirmed on transduced CER T cells by flow cytometry. Tim4 binding domain-CD28 transmembrane-CD28 signaling domain-CD3z signaling domain (CTX247) and Tim4 binding domain-CD28 signaling domain-CD3z signaling domain-TLR2 signaling domain (CTX1107) were stained for Tim4 and EGFR, a transduction marker encoded on each vector. […] E7 TCRs proliferate in response to APCs pulsed with E7 peptide through MHC class I. For autologous APCs, CD4+ and CD8+ chimeric Tim4 receptor T cell products transduced with different Tim-4 chimeric receptors were pulsed with a pool of 15-mer peptides containing 11-mer overlaps derived from the E7 protein from HPV16 or vehicle. Chimeric Tim4 receptor T cells were pulsed at 37° C. for 4 hrs with E7 peptides and tested for their capacity to trigger E7-specific activation and proliferation. E7-TCR cell surface activation marker responses were evaluated by flow cytometry 24 hours following co-culture with chimeric Tim4 receptor-T cell products. After an additional 5 days of co-culture, proliferative responses were assessed by Cell Trace (CT) Violet dilution. […]

[4] = system: phosphatidylserine; details: cited from earlier work; for binding at High PtdSer: high phosphatidylserine density; for binding at Low PtdSer: low phosphatidylserine density
[5] = system: E7 TCR-T cells; assay: E7 TCR-T cell activation markers CD25/CD69 after co-culture with E7 peptide-pulsed CER-T cells (flow cytometry); assay type: cell-based
Method: (§2) FIG. 2: T cells containing chimeric Tim4 receptors with a TLR intracellular signaling domain added to the CD3ζ signaling domain (and optionally a CD28 signaling domain) are strong stimulators of autologous E7-specific T cell responses. CER-T cells were pulsed with E7 peptide and tested for their capacity to trigger an autologous E7-specific T cell response. CD25, a T cell activation marker, was evaluated on E7 TCR-T cells, 24 hours after CER-T cells were pulsed with E7 peptides.
as §2, with “3:” for “2:”, “CD69, an early marker for” for “CD25, a”, “activation,” for “activation marker,”
Chimeric Tim4 receptor-T cells were tested to determine whether they can capture and present soluble antigens and trigger activation and proliferation of recombinant E7-restricted T cell clones in a co-culture system. First expression of Tim4 was confirmed on transduced CER T cells by flow cytometry. Tim4 binding domain-CD28 transmembrane-CD28 signaling domain-CD3z signaling domain (CTX247) and Tim4 binding domain-CD28 signaling domain-CD3z signaling domain-TLR2 signaling domain (CTX1107) were stained for Tim4 and EGFR, a transduction marker encoded on each vector. […] E7 TCRs proliferate in response to APCs pulsed with E7 peptide through MHC class I. For autologous APCs, CD4+ and CD8+ chimeric Tim4 receptor T cell products transduced with different Tim-4 chimeric receptors were pulsed with a pool of 15-mer peptides containing 11-mer overlaps derived from the E7 protein from HPV16 or vehicle. Chimeric Tim4 receptor T cells were pulsed at 37° C. for 4 hrs with E7 peptides and tested for their capacity to trigger E7-specific activation and proliferation. E7-TCR cell surface activation marker responses were evaluated by flow cytometry 24 hours following co-culture with chimeric Tim4 receptor-T cell products. After an additional 5 days of co-culture, proliferative responses were assessed by Cell Trace (CT) Violet dilution.
A higher frequency of E7-TCR containing T cells expressed both activation markers 24 hours after co-culture (FIG. 2).

[6] = 24 hours after CER-T cells pulsed with E7 peptides

NC(=O)c1cccc2cn(-c3ccc([C@@H]4CCCNC4)cc3)nc12 [Niraparib]
inhibition of growth of Kuramochi cells [1]: effective in inhibiting growth
surface PtdSer (membrane phospholipid symmetry) [2]: elicits changes in membrane phospholipid symmetry, in a dose dependent manner

B1: pCTX247: Tim4 binding domain-CD28 transmembrane-CD28 signaling domain-CD3z signaling domain (protein)
chain: ETVVTEVLGHRVTLPCLYSSWSHNSNSMCWGKDQCPYSGCKEALIRTDGMRVTSRKSAKYRLQGTIPRGDVSLTILNPSESDSGVYCCRIEVPGWFNDVKINVRLNLQRASTTTHRTATTTTRRTTTTSPTTTRQMTTTPAALPTTVVTTPDLTTGTPLQMTTIAVFTTANTCLSLTPSTLPEEATGLLTPEPSKEGPILTAESETVLPSDSWSSVESTSADTVLLTSKESKVWDLPSTSHVSMWKTSDSVSSPQPGASDTAVPEQNKTTKTGQMDGIPMSMKNEMPISQFWVLVVVGGVLACYSLLVTVAFIIFWVRSKRSRLLHSDYMNMTPRRPGPTRKHYQPYAPPRDFAAYRSRVKFSRSADAPAYQQGQNQLYNELNLGRREEYDVLDKRRGRDPEMGGKPRRKNPQEGLYNELQKDKMAEAYSEIGMKGERRRGKGHDGLYQGLSTATKDTYDALHMQALPPR
stimulation / proliferation responses of E7-specific T cells [3]: not stimulatory

B2: Tim-4: T-cell immunoglobulin and mucin domain containing protein 4, phosphatidylserine receptor (protein, UniProt Q96H15 25-378, looked up)
T-cell immunoglobulin and …: ETVVTEVLGHRVTLPCLYSSWSHNSNSMCWGKDQCPYSGCKEALIRTDGMRVTSRKSAKYRLQGTIPRGDVSLTILNPSESDSGVYCCRIEVPGWFNDVKINVRLNLQRASTTTHRTATTTTRRTTTTSPTTTRQMTTTPAALPTTVVTTPDLTTGTPLQMTTIAVFTTANTCLSLTPSTLPEEATGLLTPEPSKEGPILTAESETVLPSDSWSSVESTSADTVLLTSKESKVWDLPSTSHVSMWKTSDSVSSPQPGASDTAVPEQNKTTKTGQMDGIPMSMKNEMPISQLLMIIAPSLGFVLFALFVAFLLRGKLMETYCSQKHTRLDYIGDSKNVLNDVQHGREDEDGLFTL
Cooperativity [4]: Yes
binding at High PtdSer [4]: Strong
binding at Low PtdSer [4]: Minimal
binding at Low PtdSer ([4]; listed as Tim4 binding domain): binds minimally

B3: pCTX1107: Tim4 binding domain-CD28 signaling domain-CD3z signaling domain-TLR2 signaling domain (protein)
chain: ETVVTEVLGHRVTLPCLYSSWSHNSNSMCWGKDQCPYSGCKEALIRTDGMRVTSRKSAKYRLQGTIPRGDVSLTILNPSESDSGVYCCRIEVPGWFNDVKINVRLNLQRASTTTHRTATTTTRRTTTTSPTTTRQMTTTPAALPTTVVTTPDLTTGTPLQMTTIAVFTTANTCLSLTPSTLPEEATGLLTPEPSKEGPILTAESETVLPSDSWSSVESTSADTVLLTSKESKVWDLPSTSHVSMWKTSDSVSSPQPGASDTAVPEQNKTTKTGQMDGIPMSMKNEMPISQRSKRSRLLHSDYMNMTPRRPGPTRKHYQPYAPPRDFAAYRSRVKFSRSADAPAYQQGQNQLYNELNLGRREEYDVLDKRRGRDPEMGGKPRRKNPQEGLYNELQKDKMAEAYSEIGMKGERRRGKGHDGLYQGLSTATKDTYDALHMQALPPRHRFHGLWYMKMMWAWLQAKRKPRKAPSRNICYDAFVSYSERDAYWVENLMVQELENFNPPFKLCLHKRDFIPGKWIIDNIIDSIEKSHKTVFVLSENFVKSEWCKYELDFSHFRLFDENNDAAILILLEPIEKKAIPQRFCKLRKIMNTKTYLEWPMDEAQREGFWVNLRAAIKS
modifications: left off: large carriers
stimulation / proliferation responses of E7-specific T cells [3]: stimulatory for E7-specific T cells; also recorded: triggered proliferation responses of E7-specific TCRs
percentage of dividing E7-TCR-T cells ([3]; by 6 days, controls 8%): 44%
CD25 on E7 TCR-T cells (E7-specific activation) [5, 6]: strong stimulator of E7-specific activation
CD69 on E7 TCR-T cells (E7-specific activation) [5, 6]: strong stimulator of E7-specific activation
CD25 and CD69 upregulation (E7-specific activation) ([5]; 24 hours after co-culture, flow cytometry): strong stimulatory of E7-specific activation
E7 TCR-T cell surface activation markers CD25 and CD69 upregulated ([5]; 24 hrs following co-culture, controls 23.1%): 41.2%

B4: Tim-1: T-cell immunoglobulin and mucin domain containing protein 1, phosphatidylserine receptor (protein, UniProt Q96D42 21-364, looked up)
Hepatitis A virus cellular …: SVKVGGEAGPSVTLPCHYSGAVTSMCWNRGSCSLFTCQNGIVWTNGTHVTYRKDTRYKLLGDLSRRDVSLTIENTAVSDSGVYCCRVEHRGWFNDMKITVSLEIVPPKVTTTPIVTTVPTVTTVRTSTTVPTTTTVPMTTVPTTTVPTTMSIPTTTTVLTTMTVSTTTSVPTTTSIPTTTSVPVTTTVSTFVPPMPLPRQNHEPVATSPSSPQPAETHPTTLQGAIRREPTSSPLYSYTTDGNDTVTESSDGLWNNNQTQLFLEHSLLTANTTKGIYAGVCISVLVLLALLGVIIAKKYFFKKEVQQLSVSFSSLQIKALQNAVEKEVQAEDNIYIENSLYATD
binding at High PtdSer [4]: Strong
binding at Low PtdSer [4]: Moderate
binding at Low PtdSer ([4]; listed as Tim1 binding domain): binds more strongly to a lower phosphatidylserine density
binding at Moderate PtdSer ([4]; moderate phosphatidylserine density): Strong
